Test results published in patent US20260201030A1 (EVOPOINT BIOSCIENCES, published 2026).

What was measured:
human Claudin18.2 [1] = target: T1, human Claudin18.2 (human, UniProt P56856-2 1-261); assay: cell-based or functional assay
human Claudin18.2 [2] = target: T1, human Claudin18.2; assay: FACS on NUGC4-Claudin18.2 (human) cells
Protocol: (§1) The affinity of the anti-human Claudin18.2 humanized antibodies was detected by flow cytometry. The experimental procedures were as follows: The adherent cultured HEK293T-Claudin18.2 (human), NUGC4-Claudin18.2 (human) and NUGC4 cells were digested, collected by centrifugation, and washed three times with pre-cooled PBS. The cells were resuspended in 1% BSA (in PBS) and added to a 96-well pointed bottom plate at 3×10⁵ cells/well, with a volume of 50 μL per well. Each test antibody was diluted with 1% BSA (in PBS) (starting at 100 μg/mL, diluted in a 3-fold gradient, for 10 concentration points). The test antibody subjected to gradient dilution was added to the cells at 50 μL/well, and the mixture was well mixed and incubated at 4° C. for 1 h. The cells were collected by centrifugation, washed three times with pre-cooled PBS, and resuspended in 50 μL of 1% BSA (in PBS). 1 μL of a fluorescent secondary antibody (Biolegend-410712) was added to each well, and the mixture was well mixed and incubated at 4° C. for 0.5 h. The cells were collected by centrifugation, washed three times with pre-cooled PBS, resuspended in 200 μL of PBS, and assayed on a machine.

human Claudin18.2 [3] = target: T1, human Claudin18.2; assay: FACS on HEK293T-Claudin18.2 (human) cells
Protocol: as §1

mouse Claudin18.2 = target: T2, mouse Claudin18.2 (mouse, UniProt P56857-3 1-264, limits assumed); assay: FACS on HEK293T-Claudin18.2 (mouse) cells
T2 construct: whole, on cells; also called HEK293T-Claudin18.2 (mouse)
T2 sequence (P56857 other isoform, or with tags, fused parts or gaps limits assumed): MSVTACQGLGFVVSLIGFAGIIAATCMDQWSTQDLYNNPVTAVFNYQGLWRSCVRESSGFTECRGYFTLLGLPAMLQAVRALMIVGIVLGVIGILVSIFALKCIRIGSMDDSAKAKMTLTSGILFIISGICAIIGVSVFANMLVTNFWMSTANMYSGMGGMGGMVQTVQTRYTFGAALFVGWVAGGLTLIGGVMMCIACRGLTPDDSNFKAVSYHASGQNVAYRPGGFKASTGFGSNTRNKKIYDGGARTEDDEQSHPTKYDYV
Protocol: The mixture was incubated at 4° C. for 0.5 h, and the cells were washed three times with pre-cooled PBS, then resuspended, and assayed on a flow cytometer.

human Claudin18.2 [4] = target: T1, human Claudin18.2; assay: cell-based ELISA on L929-Claudin18.2 (human) cells
human Claudin18.2 [5] = target: T1, human Claudin18.2; assay: cell-based ELISA on NUGC4-Claudin18.2 (human) cells
human Claudin18.2 [6] = target: T1, human Claudin18.2; assay: cell-based ELISA on HEK293T-Claudin18.2 (human) cells
Protocol: The affinity of the anti-human Claudin18.2 murine monoclonal antibodies was evaluated by cell-based ELISA. The experimental procedures were as follows: The day before the experiment, HEK293T-Claudin18.2 (human) cells were plated in a 96-well plate at 5×10⁴ cells/well. On the day of the experiment, the supernatant was removed, the cells in each well were washed once with 300 μL of PBS, and 100 μL of 4% paraformaldehyde was added to each well for fixation at room temperature for 20 min. Paraformaldehyde was then removed, and the cells in each well were washed twice with 300 μL of PBS. 100 μL of 2% BSA (in PBS) was added to each well, and the mixture was blocked at 37° C. for 2 h. After removing the blocking solution, each antibody subjected to gradient dilution (diluted with 2% BSA (in PBS), starting at […], in a 3-fold gradient, for a total of 11 concentration points) was added to the plate at 100 μL/well, and the mixture was incubated at 37° C. for 2 h. The supernatant was removed, and the cells in each well were washed three times with 300 μL of PBST. […] The reaction was stopped by adding 50 μL of 2 N HCl to each well, and OD_{450 nm} values were read on a microplate reader (manufacturer: MD, model: SpectraMax). […]
The affinity of the anti-human Claudin18.2 humanized monoclonal antibodies was determined by cell-based ELISA. […]

human Claudin18.1 = target: T3, human Claudin18.1 (human, UniProt P56856 1-261); assay: FACS on HEK293T-Claudin18.1 (human) cells, antibody 50 µg/mL
T3 construct: whole, on cells; also called CLDN18.1; HEK293T-Claudin18.1 (human)
Protocol: The specificity of the anti-human Claudin18.2 humanized monoclonal antibodies was determined by flow cytometry (FACS). The experimental procedures were as follows: HEK293T-Claudin18.1 (human) cells were digested, collected by centrifugation, washed three times with pre-cooled PBS, resuspended in 1% BSA (in PBS), and added to a 96-well pointed bottom plate at 3×10⁵ cells/well. Each test antibody with a final concentration of 50 μg/mL was added, and the mixture was incubated at 4° C. for 1 h. The cells were washed three times with pre-cooled PBS, and then 1 μL of a fluorescent secondary antibody (APC: Biolegend-410712 or PE: BioLegend-410708) was added to each well. The mixture was incubated at 4° C. for 0.5 h, and the cells were washed three times with pre-cooled PBS, then resuspended, and assayed on a flow cytometer. For reference, anti-human Claudin18.1 positive control antibodies (positive control antibody-1 and positive control antibody-2) were included in the experiment.

human Claudin18.2 [7] = target: T1, human Claudin18.2; assay: cell-based ELISA on NUGC4 cells (endogenous human Claudin18.2)
human Claudin18.2 [8] = target: T1, human Claudin18.2; assay: cell-based ELISA (OD450) on NUGC4 cells (endogenous human Claudin18.2)

ADCC activity EC50 (Jurkat-NFAT-CD16a luciferase reporter, HEK293T-Claudin18.2 (human) target cells) (human Claudin18.2 [1]): 0.0465 µg/mL | EC50 (human Claudin18.2 [2]): 3.19 µg/mL | EC50 (human Claudin18.2 [3]): 0.292 µg/mL | Maximum signal value (human Claudin18.2 [3]): 114000 | EC50 (mouse Claudin18.2): 0.941 µg/mL | EC50 (human Claudin18.2 [4]): 0.0134 µg/mL | EC50 (human Claudin18.2 [5]): 0.108 µg/mL | EC50 (human Claudin18.2 [6]): 0.0112 µg/mL | Positive rate (%) (human Claudin18.1): 0.54% | EC50 (human Claudin18.2 [7]): 0.101 µg/mL | Maximum signal value (human Claudin18.2 [8]): 0.304
B1: 25C7A5-HZ1 (antibody, human IgG1, kappa)
heavy: not shown
light: EIVLTQSPATLSLSPGERATLSCKASENVKTYVSWYQQKPGQSPRLLIYEASNRYTGVPARFSGSGSATDFTLTISSLEPEDFAVYFCGQTYSFPPTFGQGTKVEIKRTVAAPSVFIFPPSDEQLKSGTASVVCLLNNFYPREAKVQWKVDNALQSGNSQESVTEQDSKDSTYSLSSTLTLSKADYEKHKVYACEVTHQGLSSPVTKSFNRGEC
notes: Humanized IgG1/kappa
CDC activity EC50 (guinea pig serum killing, CCK8, HEK293T-Claudin18.2 (human) cells) (human Claudin18.2 [1]): 3.14 µg/mL
